From paper PMC11678932, “A Signal-On Microelectrode Electrochemical Aptamer Sensor Based on AuNPs–MXene for Alpha-Fetoprotein Determination”

Biological target: T1, alpha-fetoprotein (AFP) (UniProt P02771 19-609)
T1 sequence: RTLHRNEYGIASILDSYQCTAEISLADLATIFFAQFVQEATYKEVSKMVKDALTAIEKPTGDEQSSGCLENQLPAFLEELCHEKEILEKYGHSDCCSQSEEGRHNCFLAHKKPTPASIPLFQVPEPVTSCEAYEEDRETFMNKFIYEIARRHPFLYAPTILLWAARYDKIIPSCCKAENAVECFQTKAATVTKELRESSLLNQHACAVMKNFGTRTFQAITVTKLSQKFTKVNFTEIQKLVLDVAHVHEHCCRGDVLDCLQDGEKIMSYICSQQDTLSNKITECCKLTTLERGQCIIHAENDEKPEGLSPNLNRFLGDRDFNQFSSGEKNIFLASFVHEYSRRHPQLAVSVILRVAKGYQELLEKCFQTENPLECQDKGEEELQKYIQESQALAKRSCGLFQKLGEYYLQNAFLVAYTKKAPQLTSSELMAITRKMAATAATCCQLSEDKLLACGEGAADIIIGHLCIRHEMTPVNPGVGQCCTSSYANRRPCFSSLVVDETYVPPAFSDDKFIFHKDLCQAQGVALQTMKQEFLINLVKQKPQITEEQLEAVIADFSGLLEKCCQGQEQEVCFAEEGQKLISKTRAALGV
Assay: electrochemical aptasensor (DPV); signal-on; log-linear 1-300 ng/mL, LOD 0.05 ng/mL (not a Kd); Optimized: pH 7, 4 uM aptamer, 40 min aptamer and 30 min AFP incubation; PBS (0.01 M) listed as reagent; temperature not stated for binding
Conditions: protein: commercial; label: 3'-methylene blue

B1: AFP aptamer (ssDNA)
DNA: GTGACGCTCCTAACGCTGACTCAGGTGCAGTTCTCGACTCGGTCTTGATGTGGGTCCTGTCCGTCCGAACCAATC
modifications: 5'-SH; 3'-methylene blue
binding result: binds
